Article PMC9569133 (Biochemistry, 2021)

Molecular target: the molecule itself
Test: native MS

B1: Kir3.2, full-length, human (natural protein, UniProt P48051 1-423, looked up)
chain: MAKLTESMTNVLEGDSMDQDVESPVAIHQPKLPKQARDDLPRHISRDRTKRKIQRYVRKDGKCNVHHGNVRETYRYLTDIFTTLVDLKWRFNLLIFVMVYTVTWLFFGMIWWLIAYIRGDMDHIEDPSWTPCVTNLNGFVSAFLFSIETETTIGYGYRVITDKCPEGIILLLIQSVLGSIVNAFMVGCMFVKISQPKKRAETLVFSTHAVISMRDGKLCLMFRVGDLRNSHIVEASIRAKLIKSKQTSEGEFIPLNQTDINVGYYTGDDRLFLVSPLIISHEINQQSPFWEISKAQLPKEELEIVVILEGMVEATGMTCQARSSYITSEILWGYRFTPVLTLEDGFYEVDYNSFHETYETSTPSLSAKELAELASRAELPLSWSVSSKLNQHAELETEEEEKNLEEQTERNGDVANLENESKV
  stoichiometry N: 4
